Laboratory results reported in patent US20170002055A1, “Novel peptides and combination of peptides for use in immunotherapy against ovarian cancer and other cancers” (immatics biotechnologies GmbH, priority 2015, published 2017).

Biological target: HLA-A*02:01 (Homo sapiens, UniProt P04439, D140Y/D185E/D98H/E176V/E277Q/G131W/G231S/I119V/I121R/I166T/I218V/L300P/L318F/N151K/N90K/P208A/P217A/Q86G/Q94H/R138H/R169H/T345S)
Assay: MHC binding assay (UV-ligand exchange, β2m ELISA, peptide exchange yield)
Conditions: MHC class I binding score; binding to HLA-A*02:01 ranged by peptide exchange yield (UV-ligand exchange, β2m ELISA)
Text: Candidate peptides for T cell based therapies according to the present invention were further tested for their MHC binding capacity (affinity). The individual peptide-MHC complexes were produced by UV-ligand exchange, where a UV-sensitive peptide is cleaved upon UV-irradiation, and exchanged with the peptide of interest as analyzed. Only peptide candidates that can effectively bind and stabilize the peptide-receptive MHC molecules prevent dissociation of the MHC complexes. To determine the yield of the exchange reaction, an ELISA was performed based on the detection of the light chain (β2m) of stabilized MHC complexes. The assay was performed as generally described in Rodenko et al. (Rodenko et al., 2006).
96 well MAXISorp plates (NUNC) were coated over night with 2 ug/ml streptavidin in PBS at room temperature, washed 4× and blocked for 1h at 37° C. in 2% BSA containing blocking buffer. […] Peptide-MHC monomers of the UV-exchange reaction were diluted 100 fold in blocking buffer. Samples were incubated for 1h at 37° C., washed four times, incubated with 2 ug/ml HRP conjugated anti-β2m for 1h at 37° C., washed again and detected with TMB solution that is stopped with […]. Absorption was measured at 450 nm. Candidate peptides that show a high exchange yield (preferably higher than 50%, most preferred higher than 75%) are generally preferred for a generation and production of antibodies or fragments thereof, and/or T cell receptors or fragments thereof, as they show sufficient avidity to the MHC molecules and prevent dissociation of the MHC complexes.

Peptide exchange	Substance
“+++” (≧50 = +++)	311 (RLYTGMHTV; listed as Homo sapiens) [compound 311]
“+++” (≧50 = +++)	606 (ALWETEVYI; listed as Homo sapiens) [compound 606]
“++” (≧20% = ++)	353 (YLFEMDSSL; listed as Homo sapiens) [compound 353]
“++++” (≧75% = ++++)	552 (GLLDLPFRVGV; listed as Homo sapiens) [compound 552]
“+++” (≧50 = +++)	543 (GLLPTPITQQASL; listed as Homo sapiens) [compound 543]
“+++” (≧50 = +++)	480 (ALLEDSCHYL; listed as Homo sapiens) [compound 480]
“+++” (≧50 = +++)	600 (ALAAPDIVPAL; listed as Homo sapiens) [compound 600]
“++” (≧20% = ++)	590 (SLIEKLWQT; listed as Homo sapiens) [compound 590]
“++++” (≧75% = ++++)	585 (ALWDLAADKQTL; listed as Homo sapiens) [compound 585]
“+++” (≧50 = +++)	12 (SLWPDPMEV; listed as Homo sapiens) [compound 12]
“+++” (≧50 = +++)	327 (GLAPFTEGISFV; listed as Homo sapiens) [compound 327]
“++++” (≧75% = ++++)	126 (VLAYFLPEA; listed as Homo sapiens) [compound 126]
“+++” (≧50 = +++)	315 (YLQDVVEQA; listed as Homo sapiens) [compound 315]
“+++” (≧50 = +++)	167 (KVLEVTEEFGV; listed as Homo sapiens) [compound 167]
“+++” (≧50 = +++)	27 (ILADIVISA; listed as Homo sapiens) [compound 27]
“+++” (≧50 = +++)	298 (VMITKLVEV; listed as Homo sapiens) [compound 298]
“++” (≧20% = ++)	93 (LLQAIKLYL; listed as Homo sapiens) [compound 93]
“+++” (≧50 = +++)	346 (LLDSKVPSV; listed as Homo sapiens) [compound 346]
“++” (≧20% = ++)	538 (LLLAHIIAL; listed as Homo sapiens) [compound 538]
“++” (≧20% = ++)	363 (KVLDVSDLESV; listed as Homo sapiens) [compound 363]
“+++” (≧50 = +++)	42 (VLLQKIVSA; listed as Homo sapiens) [compound 42]
“+++” (≧50 = +++)	106 (LLYDAVHIVSV; listed as Homo sapiens) [compound 106]
“+++” (≧50 = +++)	330 (QLALKVEGV; listed as Homo sapiens) [compound 330]
“++” (≧20% = ++)	393 (GLLDTQTSQVLTA; listed as Homo sapiens) [compound 393]

Peptide exchange	Substance
“+++” (≧50 = +++)	59 (IMEDIILTL; listed as Homo sapiens) [compound 59]
“++++” (≧75% = ++++)	339 (GLWEIENNPTVKA; listed as Homo sapiens) [compound 339]
“+++” (≧50 = +++)	74 (ALLDPEVLSIFV; listed as Homo sapiens) [compound 74]
“++” (≧20% = ++)	64 (YAAPGGLIGV; listed as Homo sapiens) [compound 64]
“+++” (≧50 = +++)	452 (ILLEHGADPNL; listed as Homo sapiens) [compound 452]
“++” (≧20% = ++)	398 (KLLEEDGTIITL; listed as Homo sapiens) [compound 398]
“+++” (≧50 = +++)	50 (SLSELEALM; listed as Homo sapiens) [compound 50]
“+++” (≧50 = +++)	28 (QLLDETSAITL; listed as Homo sapiens) [compound 28]
“+++” (≧50 = +++)	503 (SLNHFTHSV; listed as Homo sapiens) [compound 503]
“+++” (≧50 = +++)	25 (FLPDEPYIKV; listed as Homo sapiens) [compound 25]
“+++” (≧50 = +++)	192 (KMLDGASFTL; listed as Homo sapiens) [compound 192]
“++” (≧20% = ++)	154 (ALDDGTPAL; listed as Homo sapiens) [compound 154]
“++++” (≧75% = ++++)	310 (FLVDTPLARA; listed as Homo sapiens) [compound 310]
“++” (≧20% = ++)	270 (LLLDEEGTFSL; listed as Homo sapiens) [compound 270]
“++” (≧20% = ++)	43 (VLSSLEINI; listed as Homo sapiens) [compound 43]
“++++” (≧75% = ++++)	329 (FLVTLNNVEV; listed as Homo sapiens) [compound 329]
“++” (≧20% = ++)	180 (FQIDPHSGLVTV; listed as Homo sapiens) [compound 180]
“++” (≧20% = ++)	318 (GLINTGVLSV; listed as Homo sapiens) [compound 318]
“++” (≧20% = ++)	145 (FLATSGTLAGI; listed as Homo sapiens) [compound 145]
“++” (≧20% = ++)	428 (KLGHTDILVGV; listed as Homo sapiens) [compound 428]
“++” (≧20% = ++)	209 (KLIESKHEV; listed as Homo sapiens) [compound 209]
“+++” (≧50 = +++)	336 (ILLTAIVQV; listed as Homo sapiens) [compound 336]
“+++” (≧50 = +++)	160 (FLFDEEIEQI; listed as Homo sapiens) [compound 160]
“+++” (≧50 = +++)	595 (VLLSIYPRV; listed as Homo sapiens) [compound 595]

Peptide exchange	Substance
“+++” (≧50 = +++)	390 (ALFMKQIYL; listed as Homo sapiens) [compound 390]
“+++” (≧50 = +++)	583 (ILANDGVLLAA; listed as Homo sapiens) [compound 583]
“++” (≧20% = ++)	47 (ILLSVPLLVV; listed as Homo sapiens) [compound 47]
“++” (≧20% = ++)	197 (ALGPEGGRV; listed as Homo sapiens) [compound 197]
“++++” (≧75% = ++++)	237 (ALLEASGTLLL; listed as Homo sapiens) [compound 237]
“++” (≧20% = ++)	402 (VLFSGALLGL; listed as Homo sapiens) [compound 402]
“++” (≧20% = ++)	513 (SLWPSPEQL; listed as Homo sapiens) [compound 513]
“+++” (≧50 = +++)	597 (KLLEGQVIQL; listed as Homo sapiens) [compound 597]
“+++” (≧50 = +++)	34 (ILVEADSLWVV; listed as Homo sapiens) [compound 34]
“+++” (≧50 = +++)	495 (FIFSEKPVFV; listed as Homo sapiens) [compound 495]
“+++” (≧50 = +++)	469 (YLASDEITTV; listed as Homo sapiens) [compound 469]
“+++” (≧50 = +++)	497 (GLLEKLTAI; listed as Homo sapiens) [compound 497]
“++” (≧20% = ++)	232 (ALLEAQDVELYL; listed as Homo sapiens) [compound 232]
“+++” (≧50 = +++)	250 (ALSEEGLLVYL; listed as Homo sapiens) [compound 250]
“+++” (≧50 = +++)	73 (NIFDLQIYV; listed as Homo sapiens) [compound 73]
“++” (≧20% = ++)	44 (ILDPISSGFLL; listed as Homo sapiens) [compound 44]
“+++” (≧50 = +++)	280 (VLPDPEVLEAV; listed as Homo sapiens) [compound 280]
“+++” (≧50 = +++)	344 (YLQDQHLLLTV; listed as Homo sapiens) [compound 344]
“++” (≧20% = ++)	526 (RLAEVGQYEQV; listed as Homo sapiens) [compound 526]
“++” (≧20% = ++)	278 (QLLDVVLTI; listed as Homo sapiens) [compound 278]
“++” (≧20% = ++)	218 (SALEELVNV; listed as Homo sapiens) [compound 218]
“+++” (≧50 = +++)	248 (FLFPNQYVDV; listed as Homo sapiens) [compound 248]
“+++” (≧50 = +++)	464 (ALNDCIYSV; listed as Homo sapiens) [compound 464]
